Experimental findings from PMC6275495 are described below.

Some results are limits rather than exact numbers.

This assay addresses PDGFRs (PDGFRα and PDGFRβ subunit dimers) (mouse (endogenous in MEFs)) (UniProt P26618). Nature of the assay: affinity purification with mass spectrometry.
UniProt P26618, sequence (P26618 25-1089, chain 1 of 2): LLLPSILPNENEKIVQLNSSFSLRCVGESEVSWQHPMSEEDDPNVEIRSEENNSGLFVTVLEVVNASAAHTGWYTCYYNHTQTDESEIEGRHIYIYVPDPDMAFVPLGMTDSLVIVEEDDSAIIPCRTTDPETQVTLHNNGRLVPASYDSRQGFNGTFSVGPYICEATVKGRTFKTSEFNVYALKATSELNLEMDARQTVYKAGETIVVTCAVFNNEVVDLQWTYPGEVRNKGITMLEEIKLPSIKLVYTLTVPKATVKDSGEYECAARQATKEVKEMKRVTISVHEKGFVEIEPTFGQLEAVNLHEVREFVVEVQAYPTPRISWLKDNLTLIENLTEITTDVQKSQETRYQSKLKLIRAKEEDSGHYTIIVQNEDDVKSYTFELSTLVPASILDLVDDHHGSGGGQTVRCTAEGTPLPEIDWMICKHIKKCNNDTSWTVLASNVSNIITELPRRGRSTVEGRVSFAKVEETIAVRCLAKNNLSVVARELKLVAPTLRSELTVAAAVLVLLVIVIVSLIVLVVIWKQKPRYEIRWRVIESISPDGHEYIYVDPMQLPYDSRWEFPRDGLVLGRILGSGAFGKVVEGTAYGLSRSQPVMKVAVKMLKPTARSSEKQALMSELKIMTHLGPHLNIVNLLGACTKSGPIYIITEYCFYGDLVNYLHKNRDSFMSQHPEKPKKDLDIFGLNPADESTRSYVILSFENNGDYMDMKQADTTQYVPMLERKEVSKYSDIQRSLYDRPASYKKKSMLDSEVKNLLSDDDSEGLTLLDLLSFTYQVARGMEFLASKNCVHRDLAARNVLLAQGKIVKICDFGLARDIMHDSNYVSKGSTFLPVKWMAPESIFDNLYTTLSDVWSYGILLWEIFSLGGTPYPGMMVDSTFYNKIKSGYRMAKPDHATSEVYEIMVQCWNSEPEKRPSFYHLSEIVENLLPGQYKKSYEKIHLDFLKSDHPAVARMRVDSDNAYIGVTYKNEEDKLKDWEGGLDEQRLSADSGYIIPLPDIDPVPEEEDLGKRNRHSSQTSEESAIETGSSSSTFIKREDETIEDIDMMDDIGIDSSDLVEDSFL
UniProt P26618, sequence (P05622 32-1098, chain 2 of 2, further chain): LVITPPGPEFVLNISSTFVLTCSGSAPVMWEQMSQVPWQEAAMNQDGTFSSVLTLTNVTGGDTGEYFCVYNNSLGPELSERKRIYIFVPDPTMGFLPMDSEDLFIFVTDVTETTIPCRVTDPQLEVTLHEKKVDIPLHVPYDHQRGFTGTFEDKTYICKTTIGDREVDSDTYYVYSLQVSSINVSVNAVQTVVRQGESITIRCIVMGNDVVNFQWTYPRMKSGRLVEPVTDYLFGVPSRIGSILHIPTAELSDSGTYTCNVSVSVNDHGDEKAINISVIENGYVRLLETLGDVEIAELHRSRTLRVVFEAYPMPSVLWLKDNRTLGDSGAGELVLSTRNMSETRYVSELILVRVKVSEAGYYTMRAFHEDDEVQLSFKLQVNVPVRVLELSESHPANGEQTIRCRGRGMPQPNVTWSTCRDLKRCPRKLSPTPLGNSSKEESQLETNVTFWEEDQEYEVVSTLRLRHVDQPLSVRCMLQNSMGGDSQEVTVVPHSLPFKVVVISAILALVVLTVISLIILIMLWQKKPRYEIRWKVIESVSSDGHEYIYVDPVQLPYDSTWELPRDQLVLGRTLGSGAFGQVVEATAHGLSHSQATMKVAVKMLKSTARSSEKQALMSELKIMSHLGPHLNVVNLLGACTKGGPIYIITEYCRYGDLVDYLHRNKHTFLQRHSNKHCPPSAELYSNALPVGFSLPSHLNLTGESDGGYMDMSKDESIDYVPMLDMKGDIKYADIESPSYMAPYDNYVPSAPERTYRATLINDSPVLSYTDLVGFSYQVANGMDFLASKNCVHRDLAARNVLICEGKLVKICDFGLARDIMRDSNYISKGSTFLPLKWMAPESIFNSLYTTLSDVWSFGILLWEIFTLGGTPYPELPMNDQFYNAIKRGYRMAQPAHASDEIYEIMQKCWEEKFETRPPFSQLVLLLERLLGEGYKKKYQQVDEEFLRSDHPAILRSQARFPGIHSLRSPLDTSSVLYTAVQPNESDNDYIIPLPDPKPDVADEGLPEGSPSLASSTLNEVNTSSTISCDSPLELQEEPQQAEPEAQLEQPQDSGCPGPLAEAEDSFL

Substance total p85 gave a percent of total associated with anti-PDGFR-IPs greater than 80%.
